In US20090104196A1 (UNIVERSITAETSKLINIKUM FREIBURG, published 2009):

Molecular target: T1, LSD1 1-174 (N-terminus of LSD1), labelled (UniProt O60341 1-174)
T1 construct: Labelled LSD1 deletion mutant used in the GST pull-down; not shown: Flag tag of the CMX-Flag vector
Assay: GST pull-down, labelled LSD1 mutant
Experimental: GST, GST-Nix1, GST-ROR[…], and GST ERβ-NTD proteins were used as control. (NTD; N-terminal domain, DBD; DNA-binding domain, LBD; ligand-binding domain).
GST pull-down assays were performed with equal amounts of GST or GST fusion proteins as described¹⁷ using buffer containing either 150 mM KCl, 0.15% NP40 (FIG. 1b) or 600 mM KCl, 0.3% NP40 (FIG. 7a). Pull-downs with sepharose coupled histone H3 tail were performed as described²⁷ in 20 mM Tris pH 8.5, 150 mM NaCl, 0.5% NP40.10% of the in vitro translated proteins were loaded as input.

B1: GST-AR-DBD (GST fused to the DNA-binding domain of the androgen receptor), bacterially expressed (other, UniProt P10275 560-632, looked up)
chain: CLICGDEASGCHYGALTCGSCKVFFKRAAEGKQKYLCASRNDCTIDKFRRKNCPSCRLRKCYEAGMTLGARKL
notes: also called GST-AR fusion protein; not shown: glutathione S-transferase (GST) fusion partner
binding result: no binding
